Reference: patent publication US20180214568A1

Experiments:
[1] = molecular target: CD56 on the surface of human neuroblastoma cells (human) (UniProt P13591); assay: flow cytometry, isotype control staining of SKNAS cells
[2] = molecular target: CD56 on the surface of human neuroblastoma cells (human) (UniProt P13591); assay: flow cytometry, isotype control staining of Kelly cells
[3] = molecular target: CD56 on the surface of human neuroblastoma cells (human) (UniProt P13591); assay: flow cytometry, MY31 staining of SKNAS cells after overnight treatment with 50 nM m906 (remaining surface CD56)
[4] = molecular target: CD56 on the surface of human neuroblastoma cells (human) (UniProt P13591); assay: flow cytometry, MY31 staining of Kelly cells after overnight treatment with 25 nM control IgG
[5] = molecular target: CD56 on the surface of human neuroblastoma cells (human) (UniProt P13591); assay: flow cytometry, MY31 staining of SKNAS cells after overnight treatment with 12.5 nM m906 (remaining surface CD56)
[6] = molecular target: CD56 on the surface of human neuroblastoma cells (human) (UniProt P13591); assay: flow cytometry, MY31 staining of Kelly cells, untreated
[7] = molecular target: CD56 on the surface of human neuroblastoma cells (human) (UniProt P13591); assay: flow cytometry, MY31 staining of Kelly cells after overnight treatment with 12.5 nM m906 (remaining surface CD56)
[8] = molecular target: CD56 on the surface of human neuroblastoma cells (human) (UniProt P13591); assay: flow cytometry, MY31 staining of SKNAS cells, untreated
[9] = molecular target: CD56 on the surface of human neuroblastoma cells (human) (UniProt P13591); assay: flow cytometry, MY31 staining of SKNAS cells after overnight treatment with 25 nM control IgG
[10] = molecular target: CD56 on the surface of human neuroblastoma cells (human) (UniProt P13591); assay: flow cytometry, MY31 staining of Kelly cells after overnight treatment with 50 nM m906 (remaining surface CD56)
[11] = molecular target: CD56 on the surface of human neuroblastoma cells (human) (UniProt P13591); assay: flow cytometry, MY31 staining of Kelly cells after overnight treatment with 25 nM m906 (remaining surface CD56)
[12] = molecular target: CD56 on the surface of human neuroblastoma cells (human) (UniProt P13591); assay: flow cytometry, MY31 staining of SKNAS cells after overnight treatment with 25 nM m906 (remaining surface CD56)

Substance	Geometric Mean [1]	Geometric Mean [2]	Geometric Mean [3]	Geometric Mean [4]	Geometric Mean [5]	Geometric Mean [6]	Geometric Mean [7]	Geometric Mean [8]	Geometric Mean [9]	Geometric Mean [10]	Geometric Mean [11]	Geometric Mean [12]
PE Isotype Control (antibody)	10700	4710										
anti-CD56 antibody MY31			10300	63700	10200	53700	7150	12500	13300	6030	6420	10600
